We go through 2 molecules from paper PMC2878485 (Structure (London, England : 1993), 2008).

Numbering of substitutions follows the chain as printed.

In data set [1] the target is T1, UL44ΔC290 (wild-type; N-terminal 290 residues of human cytomegalovirus UL44) (human cytomegalovirus, UniProt P16790 1-290).
T1 sequence (looked up): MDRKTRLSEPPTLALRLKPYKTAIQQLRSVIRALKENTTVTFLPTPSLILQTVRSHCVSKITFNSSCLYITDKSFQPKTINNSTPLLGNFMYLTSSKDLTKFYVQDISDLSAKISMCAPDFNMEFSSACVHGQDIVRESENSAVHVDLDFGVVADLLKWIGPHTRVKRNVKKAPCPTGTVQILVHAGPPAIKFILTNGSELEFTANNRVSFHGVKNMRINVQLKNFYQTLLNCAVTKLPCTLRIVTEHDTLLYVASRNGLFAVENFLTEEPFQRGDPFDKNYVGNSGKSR
Description: ITC. On the technique in general: Isothermal titration calorimetry measures the heat released or taken up as one component is titrated into another.

The target in data set [2] is T2, UL44ΔC290 K35A/K158A/K224A/K237A (human cytomegalovirus, UniProt P16790 1-290, K35A | K158A | K224A | K237A).
T2 sequence (looked up): T1 sequence (looked up) with K35A, K158A, K224A, K237A
Description: ITC.

In data set [3] the target is T3, UL44ΔC290 R165A/K167A/R168A/K171A/K172A (human cytomegalovirus, UniProt P16790 1-290, R165A | K167A | R168A | K171A | K172A).
T3 sequence (looked up): T1 sequence (looked up) with R165A, K167A, R168A, K171A, K172A
Description: ITC.

A further data set has as its target UL44ΔC290 wild-type (Human cytomegalovirus, UniProt P16790 1-290). Description: disulfide crosslinking, nonreducing PAGE.

For LPRRLHLEPAFLPYSVKAHECC (peptide, UniProt P08546 1221-1242, looked up) [peptide corresponding to the C-terminal 22 residues of UL54], the binding result in data set [1], in data set [2] and in data set [3] was “binds” throughout.

B1: 18 bp thiol-tethered DNA (dsDNA)
DNA 1: TACCGCAGCCATCAGAGT
DNA 2: ACTCTGATGGCTGCGGTA
modifications: single thiol tether on backbone phosphate between bases 11 and 12 of strand 1
For the molecule B1, in the data set with UL44ΔC290 wild-type, the binding result is given as “binds”.
